# According to paper PMC10148413 (2023):
# What was measured:
# [1] = biological target: histone H3 (unmodified) (Drosophila melanogaster, UniProt P02299)
# [2] = biological target: histone H3 (K4 trimethylated) (Drosophila melanogaster, UniProt P02299)
Kd [1] [nM],Kd [2] [µM],Binder
~600,–,Caf1 (protein) MVDRSDNAAESFDDAVEERVINEEYKIWKKNTPFLYDLVMTHALEWPSLTAQWLPDVTKQDGKDYSVHRLILGTHTSDEQNHLLIASVQLPSEDAQFDGSHYDNEKGEFGGFGSVCGKIEIEIKINHEGEVNRARYMPQNACVIATKTPSSDVLVFDYTKHPSKPEPSGECQPDLRLRGHQKEGYGLSWNPNLNGYLLSASDDHTICLWDINATPKEHRVIDAKNIFTGHTAVVEDVAWHLLHESLFGSVADDQKLMIWDTRNNNTSKPSHTVDAHTAEVNCLSFNPYSEFILATGSADKTVALWDLRNLKLKLHSFESHKDEIFQVQWSPHNETILASSGTDRRLHVWDLSKIGEEQSTEDAEDGPPELLFIHGGHTAKISDFSWNPNEPWIICSVSEDNIMQVWQMAENVYNDEEPEIPASELETNTA
–,> 70,"Caf1 (protein, H3K4me3) MVDRSDNAAESFDDAVEERVINEEYKIWKKNTPFLYDLVMTHALEWPSLTAQWLPDVTKQDGKDYSVHRLILGTHTSDEQNHLLIASVQLPSEDAQFDGSHYDNEKGEFGGFGSVCGKIEIEIKINHEGEVNRARYMPQNACVIATKTPSSDVLVFDYTKHPSKPEPSGECQPDLRLRGHQKEGYGLSWNPNLNGYLLSASDDHTICLWDINATPKEHRVIDAKNIFTGHTAVVEDVAWHLLHESLFGSVADDQKLMIWDTRNNNTSKPSHTVDAHTAEVNCLSFNPYSEFILATGSADKTVALWDLRNLKLKLHSFESHKDEIFQVQWSPHNETILASSGTDRRLHVWDLSKIGEEQSTEDAEDGPPELLFIHGGHTAKISDFSWNPNEPWIICSVSEDNIMQVWQMAENVYNDEEPEIPASELETNTA"
